From IntAct's records for PubMed 27427983

B1: Non-structural maintenance of chromosomes element 3 homolog (Homo sapiens), Q96MG7 (parent)
chain: MLQKPRNRGRSGGQAERDRDWSHSGNPGASRAGEDARVLRDGFAEEAPSTSRGPGGSQGSQGPSPQGARRAQAAPAVGPRSQKQLELKVSELVQFLLIKDQKKIPIKRADILKHVIGDYKDIFPDLFKRAAERLQYVFGYKLVELEPKSNTYILINTLEPVEEDAEMRGDQGTPTTGLLMIVLGLIFMKGNTIKETEAWDFLRRLGVYPTKKHLIFGDPKKLITEDFVRQRYLEYRRIPHTDPVDYEFQWGPRTNLETSKMKVLKFVAKVHNQDPKDWPAQYCEALADEENRARPQPSGPAPSS
partner: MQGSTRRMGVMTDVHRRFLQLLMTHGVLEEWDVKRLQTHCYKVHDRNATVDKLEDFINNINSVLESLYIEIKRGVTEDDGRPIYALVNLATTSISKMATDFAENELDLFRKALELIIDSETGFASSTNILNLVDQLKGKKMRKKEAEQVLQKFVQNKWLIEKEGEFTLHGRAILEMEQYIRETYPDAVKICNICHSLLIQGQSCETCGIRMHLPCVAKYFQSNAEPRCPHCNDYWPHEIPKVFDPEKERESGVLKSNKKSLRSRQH
B2: Non-structural maintenance of chromosomes element 3 homolog (Homo sapiens), Q96MG7 (parent)
chain: B1 chain
partner: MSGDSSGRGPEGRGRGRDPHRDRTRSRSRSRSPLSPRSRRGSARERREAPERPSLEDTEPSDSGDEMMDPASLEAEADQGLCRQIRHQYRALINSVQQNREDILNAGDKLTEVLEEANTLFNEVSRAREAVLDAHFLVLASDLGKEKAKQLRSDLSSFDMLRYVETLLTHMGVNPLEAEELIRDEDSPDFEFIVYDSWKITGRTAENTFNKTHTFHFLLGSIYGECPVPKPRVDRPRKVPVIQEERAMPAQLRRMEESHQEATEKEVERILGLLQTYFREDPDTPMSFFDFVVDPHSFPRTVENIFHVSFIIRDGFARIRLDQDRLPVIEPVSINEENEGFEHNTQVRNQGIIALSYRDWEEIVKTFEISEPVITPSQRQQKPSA
B3: Non-structural maintenance of chromosomes element 3 homolog (Homo sapiens), Q96MG7 (parent)
chain: B1 chain
partner: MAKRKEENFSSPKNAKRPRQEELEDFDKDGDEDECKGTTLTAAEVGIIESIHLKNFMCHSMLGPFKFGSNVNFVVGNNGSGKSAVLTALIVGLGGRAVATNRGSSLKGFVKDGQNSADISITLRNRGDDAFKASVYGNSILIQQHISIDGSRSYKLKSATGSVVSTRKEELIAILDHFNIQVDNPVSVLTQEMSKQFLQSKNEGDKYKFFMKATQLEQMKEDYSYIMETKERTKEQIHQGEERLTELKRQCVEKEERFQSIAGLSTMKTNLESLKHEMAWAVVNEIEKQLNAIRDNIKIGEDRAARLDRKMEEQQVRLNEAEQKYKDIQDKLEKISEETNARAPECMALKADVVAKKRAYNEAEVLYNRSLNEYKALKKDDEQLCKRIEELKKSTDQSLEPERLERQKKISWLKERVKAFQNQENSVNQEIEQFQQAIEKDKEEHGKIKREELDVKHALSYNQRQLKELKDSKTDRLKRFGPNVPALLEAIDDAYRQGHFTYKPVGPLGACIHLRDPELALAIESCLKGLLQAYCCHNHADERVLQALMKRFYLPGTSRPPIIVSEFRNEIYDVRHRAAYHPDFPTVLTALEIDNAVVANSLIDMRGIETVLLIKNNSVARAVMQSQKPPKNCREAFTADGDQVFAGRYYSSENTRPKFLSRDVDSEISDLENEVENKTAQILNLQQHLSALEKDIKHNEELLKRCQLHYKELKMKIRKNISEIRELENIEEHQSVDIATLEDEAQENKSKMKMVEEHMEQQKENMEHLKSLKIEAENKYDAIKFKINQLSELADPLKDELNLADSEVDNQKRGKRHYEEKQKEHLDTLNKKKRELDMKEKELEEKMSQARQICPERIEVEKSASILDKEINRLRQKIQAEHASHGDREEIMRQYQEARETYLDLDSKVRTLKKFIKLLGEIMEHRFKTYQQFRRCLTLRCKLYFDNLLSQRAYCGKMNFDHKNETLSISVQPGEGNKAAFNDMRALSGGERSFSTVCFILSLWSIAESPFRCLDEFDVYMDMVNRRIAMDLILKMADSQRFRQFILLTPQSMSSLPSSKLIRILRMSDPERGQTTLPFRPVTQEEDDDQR

Variants of: B1
Conditions: with nse1_human NSMCE1, Q8WV22

Variant	effect of a mutation on the interaction
L97A	disrupting interaction strength
P209L	decreasing interaction strength
F266A	with no effect
L264F	with no effect

Variants of: B1
Conditions: with nse1_human NSMCE1, Q8WV22
Remark: another data set of the same source

Variant	effect of a mutation on the interaction
L264F	decreasing interaction strength

Variants of: B2
Conditions: with nse4a_human NSMCE4A

Variant	effect of a mutation on the interaction
L97A	with no effect
F266A	disrupting interaction strength
L264F	disrupting interaction strength
P209L	disrupting interaction strength

Variants of: B3
Conditions: with smc6_human SMC6, Q96SB8

Variant	effect of a mutation on the interaction
L264F	disrupting interaction strength
